{"source": "patent EP1506972A1", "about": "(Genentech Inc., dated 2005)", "test_in_all_cases": "competitive phage ELISA, soluble IGFBP-1 vs coated IGFBP-1", "key": {"[1]": {"biological_target": "Ala(1-3)-IGF-I, triple alanine mutant of the first three N-terminal amino acids, displayed on phage (human; bacteriophage M13)"}, "[2]": {"biological_target": "IGF-I D20A (G1S-A70V background) displayed on phage (human; bacteriophage M13)"}, "[3]": {"biological_target": "IGF-I F23A (G1S-A70V background) displayed on phage (human; bacteriophage M13)"}, "[4]": {"biological_target": "IGF-I F25A (G1S-A70V background) displayed on phage (human; bacteriophage M13)"}, "[5]": {"biological_target": "IGF-I G19A (G1S-A70V background) displayed on phage (human; bacteriophage M13)"}, "[6]": {"biological_target": "IGF-I G22A (G1S-A70V background) displayed on phage (human; bacteriophage M13)"}, "[7]": {"biological_target": "IGF-I G42A (G1S-A70V background) displayed on phage (human; bacteriophage M13)"}, "[8]": {"biological_target": "IGF-I I43A (G1S-A70V background) displayed on phage (human; bacteriophage M13)"}, "[9]": {"biological_target": "IGF-I N26A (G1S-A70V background) displayed on phage (human; bacteriophage M13)"}, "[10]": {"biological_target": "IGF-I Q40A (G1S-A70V background) displayed on phage (human; bacteriophage M13)"}, "[11]": {"biological_target": "IGF-I R21A (G1S-A70V background) displayed on phage (human; bacteriophage M13)"}, "[12]": {"biological_target": "IGF-I R37A (G1S-A70V background) displayed on phage (human; bacteriophage M13)"}, "[13]": {"biological_target": "IGF-I S34A (G1S-A70V background) displayed on phage (human; bacteriophage M13)"}, "[14]": {"biological_target": "IGF-I S35A (G1S-A70V background) displayed on phage (human; bacteriophage M13)"}, "[15]": {"biological_target": "IGF-I T41A (G1S-A70V background) displayed on phage (human; bacteriophage M13)"}, "[16]": {"biological_target": "IGF-I V44A (G1S-A70V background) displayed on phage (human; bacteriophage M13)"}, "[17]": {"biological_target": "IGF-I Y24A (G1S-A70V background) displayed on phage (human; bacteriophage M13)"}, "[18]": {"biological_target": "T1, IGF-I G1S-A70V displayed on phage (fused to M13 gene III protein residues 249-406) (human; bacteriophage M13)", "T1 construct": "Monovalent display on M13 phagemid particles; template of the alanine scan; also called G1S-A70V IGF-I; wild-type-like IGF-I variant; not shown: Display carrier: M13 gene III protein fragment (residues 249-406) and the junction to it"}, "[19]": {"biological_target": "T2, wild-type IGF-I displayed on phage (double mutation restoring wild type) (human; bacteriophage M13, UniProt P69168 267-424)", "T2 construct": "range 249-406; also called IGF-I WT; WT"}, "[20]": {"biological_target": "T3, IGF-I D45A (G1S-A70V background) displayed on phage (human; bacteriophage M13)", "T3 construct": "not shown: Display carrier: M13 gene III protein fragment (residues 249-406) and the junction to it", "T3 chain": "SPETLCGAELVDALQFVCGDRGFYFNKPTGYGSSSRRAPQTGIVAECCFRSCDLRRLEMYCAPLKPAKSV"}, "[21]": {"biological_target": "T4, IGF-I L54A (G1S-A70V background) displayed on phage (human; bacteriophage M13)", "T4 construct": "not shown: Display carrier: M13 gene III protein fragment (residues 249-406) and the junction to it", "T4 chain": "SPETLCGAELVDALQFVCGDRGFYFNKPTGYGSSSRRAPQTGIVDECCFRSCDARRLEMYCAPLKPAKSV"}, "[22]": {"biological_target": "T5, IGF-I R56A (G1S-A70V background) displayed on phage (human; bacteriophage M13)", "T5 construct": "not shown: M13 gene III fragment (residues 249-406), the display partner, and its junction to IGF-I", "T5 chain": "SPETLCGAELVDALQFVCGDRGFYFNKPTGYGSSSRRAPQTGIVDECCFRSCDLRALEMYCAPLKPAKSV"}, "[23]": {"biological_target": "T6, IGF-I L57A (G1S-A70V background) displayed on phage (human; bacteriophage M13)", "T6 construct": "not shown: M13 gene III fragment (residues 249-406), the display partner, and its junction to IGF-I", "T6 chain": "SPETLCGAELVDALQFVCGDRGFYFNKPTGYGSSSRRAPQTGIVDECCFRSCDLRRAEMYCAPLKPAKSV"}}, "data": [{"binder": "human IGFBP-1 (other, UniProt P08833 26-259, looked up, Secreted recombinant protein) APWQCAPCSAEKLALCPPVSASCSEVTRSAGCGCCPMCALPLGAACGVATARCARGLSCRALPGEQQPLHALTRGQGACVQESDASAPHAAEAGSPESPESTEITEEELLDNFHLMAPSEEDHSILWDAISTYDGSKALHVTNIKKWKEPCRIELYRVVESLAKAQETSGEEISKFYLPNCNKNGFYHSRQCETSMDGEAGLCWCVYPWNGKRIPGSPEIRGDPNCQIYFNVQN", "values": [{"measurement": "IC50", "setting": "[1]", "value": 0.0904, "unit": "µM"}, {"measurement": "relative IC50 (IC50mut/IC50 G1S-A70V)", "setting": "[1]", "value": 11, "unit": "fold"}, {"measurement": "IC50", "setting": "[2]", "value": 0.0084, "unit": "µM"}, {"measurement": "relative IC50 (IC50mut/IC50 G1S-A70V)", "setting": "[2]", "value": 1, "unit": "fold"}, {"measurement": "IC50", "setting": "[3]", "value": 0.0109, "unit": "µM"}, {"measurement": "relative IC50 (IC50mut/IC50 G1S-A70V)", "setting": "[3]", "value": 1.3, "unit": "fold"}, {"measurement": "IC50", "setting": "[4]", "value": 0.181, "unit": "µM"}, {"measurement": "relative IC50 (IC50mut/IC50 G1S-A70V)", "setting": "[4]", "value": 22.1, "unit": "fold"}, {"measurement": "IC50", "setting": "[5]", "value": 0.011, "unit": "µM"}, {"measurement": "relative IC50 (IC50mut/IC50 G1S-A70V)", "setting": "[5]", "value": 1.3, "unit": "fold"}, {"measurement": "IC50", "setting": "[6]", "value": 0.0159, "unit": "µM"}, {"measurement": "relative IC50 (IC50mut/IC50 G1S-A70V)", "setting": "[6]", "value": 1.9, "unit": "fold"}, {"measurement": "IC50", "setting": "[7]", "value": 0.0157, "unit": "µM"}, {"measurement": "relative IC50 (IC50mut/IC50 G1S-A70V)", "setting": "[7]", "value": 1.9, "unit": "fold"}, {"measurement": "IC50", "setting": "[8]", "value": 0.0313, "unit": "µM"}, {"measurement": "relative IC50 (IC50mut/IC50 G1S-A70V)", "setting": "[8]", "value": 3.8, "unit": "fold"}, {"measurement": "IC50", "setting": "[9]", "value": 0.0091, "unit": "µM"}, {"measurement": "relative IC50 (IC50mut/IC50 G1S-A70V)", "setting": "[9]", "value": 1.1, "unit": "fold"}, {"measurement": "IC50", "setting": "[10]", "value": 0.0102, "unit": "µM"}, {"measurement": "relative IC50 (IC50mut/IC50 G1S-A70V)", "setting": "[10]", "value": 1.2, "unit": "fold"}, {"measurement": "IC50", "setting": "[11]", "value": 0.0071, "unit": "µM"}, {"measurement": "relative IC50 (IC50mut/IC50 G1S-A70V)", "setting": "[11]", "value": 0.9, "unit": "fold"}, {"measurement": "IC50", "setting": "[12]", "value": 0.0123, "unit": "µM"}, {"measurement": "relative IC50 (IC50mut/IC50 G1S-A70V)", "setting": "[12]", "value": 1.5, "unit": "fold"}, {"measurement": "IC50", "setting": "[13]", "value": 0.0095, "unit": "µM"}, {"measurement": "relative IC50 (IC50mut/IC50 G1S-A70V)", "setting": "[13]", "value": 1.2, "unit": "fold"}, {"measurement": "IC50", "setting": "[14]", "value": 0.0117, "unit": "µM"}, {"measurement": "relative IC50 (IC50mut/IC50 G1S-A70V)", "setting": "[14]", "value": 1.4, "unit": "fold"}, {"measurement": "IC50", "setting": "[15]", "value": 0.0137, "unit": "µM"}, {"measurement": "relative IC50 (IC50mut/IC50 G1S-A70V)", "setting": "[15]", "value": 1.7, "unit": "fold"}, {"measurement": "IC50", "setting": "[16]", "value": 0.0188, "unit": "µM"}, {"measurement": "relative IC50 (IC50mut/IC50 G1S-A70V)", "setting": "[16]", "value": 2.3, "unit": "fold"}, {"measurement": "IC50", "setting": "[17]", "value": 0.0133, "unit": "µM"}, {"measurement": "relative IC50 (IC50mut/IC50 G1S-A70V)", "setting": "[17]", "value": 1.6, "unit": "fold"}, {"measurement": "relative IC50 (IC50mut/IC50 G1S-A70V)", "setting": "[18]", "value": 1, "unit": "fold"}, {"measurement": "relative IC50 (IC50mut/IC50 G1S-A70V)", "setting": "[19]", "value": 1, "unit": "fold"}, {"measurement": "relative IC50 (IC50mut/IC50 G1S-A70V)", "setting": "[20]", "value": 0.6, "unit": "fold"}, {"measurement": "relative IC50 (IC50mut/IC50 G1S-A70V)", "setting": "[21]", "value": 2.8, "unit": "fold"}, {"measurement": "relative IC50 (IC50mut/IC50 G1S-A70V)", "setting": "[22]", "value": 1.6, "unit": "fold"}, {"measurement": "relative IC50 (IC50mut/IC50 G1S-A70V)", "setting": "[23]", "value": 2.7, "unit": "fold"}]}]}
